{
  "source": "patent US20130115256A1",
  "about": "(published 2013)",
  "assay_in_all_cases": "cell-based or functional assay",
  "key": {"[1]": {"molecular_target": "JNK (c-Jun N-terminal Kinase)"}, "[2]": {"molecular_target": "T1, MKK4 (Mitogen-Activated Protein Kinase Kinase 4) (UniProt P45985 1-399)", "T1 sequence": "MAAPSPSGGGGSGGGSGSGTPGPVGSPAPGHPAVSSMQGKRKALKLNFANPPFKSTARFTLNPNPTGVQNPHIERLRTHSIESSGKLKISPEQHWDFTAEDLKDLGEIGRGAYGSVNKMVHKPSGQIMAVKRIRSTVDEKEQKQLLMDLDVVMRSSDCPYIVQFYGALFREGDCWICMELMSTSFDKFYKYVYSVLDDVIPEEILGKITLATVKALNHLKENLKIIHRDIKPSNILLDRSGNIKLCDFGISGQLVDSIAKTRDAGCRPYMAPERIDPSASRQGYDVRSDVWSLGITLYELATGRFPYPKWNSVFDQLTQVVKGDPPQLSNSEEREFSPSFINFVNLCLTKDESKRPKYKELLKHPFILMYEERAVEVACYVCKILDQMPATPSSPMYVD"}, "[3]": {"molecular_target": "T2, MKK6 (Mitogen-Activated Protein Kinase Kinase) (UniProt P52564 1-334)", "T2 sequence": "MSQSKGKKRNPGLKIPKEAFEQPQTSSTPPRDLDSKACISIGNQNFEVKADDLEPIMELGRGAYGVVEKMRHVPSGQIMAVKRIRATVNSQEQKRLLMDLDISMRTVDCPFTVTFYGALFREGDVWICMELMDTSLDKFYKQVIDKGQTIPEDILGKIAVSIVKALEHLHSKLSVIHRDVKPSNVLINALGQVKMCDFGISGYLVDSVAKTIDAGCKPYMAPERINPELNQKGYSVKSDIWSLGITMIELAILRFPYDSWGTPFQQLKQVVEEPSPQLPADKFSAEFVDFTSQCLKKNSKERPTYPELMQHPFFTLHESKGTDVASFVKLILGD"}, "[4]": {"molecular_target": "MEK1 (Meiosis-specific serine/threonine protein kinase) (UniProt Q02750 1-393)"}, "[5]": {"molecular_target": "T3, PRAK (p38-Regulated/Activated Protein Kinase) (UniProt Q8IW41 1-473)", "T3 sequence": "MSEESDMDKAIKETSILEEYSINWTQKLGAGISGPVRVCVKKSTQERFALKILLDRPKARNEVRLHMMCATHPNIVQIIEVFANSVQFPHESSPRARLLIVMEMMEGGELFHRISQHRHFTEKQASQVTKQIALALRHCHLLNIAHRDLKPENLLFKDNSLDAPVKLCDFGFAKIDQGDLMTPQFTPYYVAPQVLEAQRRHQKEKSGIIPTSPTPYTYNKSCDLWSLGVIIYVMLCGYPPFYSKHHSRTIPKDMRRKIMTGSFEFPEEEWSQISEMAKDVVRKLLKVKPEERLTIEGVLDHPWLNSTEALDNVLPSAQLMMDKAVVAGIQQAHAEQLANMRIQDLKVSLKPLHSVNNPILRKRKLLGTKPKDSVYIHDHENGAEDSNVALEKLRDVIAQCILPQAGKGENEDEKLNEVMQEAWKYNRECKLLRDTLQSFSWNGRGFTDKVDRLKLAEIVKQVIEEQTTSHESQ"}, "[6]": {"molecular_target": "p38 MAPK (p38 Mitogen-Activated Protein Kinase)"}},
  "note": "Where no end group is shown, it is not given here.",
  "data": [
    {"binder": "YARAAARQARAKALARQLGVAA (not fully specified (C-terminus))", "note": "[MMI-0100 (YARAAARQARAKALARQLGVAA; SEQ ID NO: 1)]", "values": [
      {"measurement": "Percent Activity (radiometric kinase assay, peptide at 100 µM)", "setting": "[1]", "result": 92, "unit": "% activity"},
      {"measurement": "Percent Activity (radiometric kinase assay, peptide at 100 µM)", "setting": "[2]", "result": 90, "unit": "% activity"},
      {"measurement": "Percent Activity (radiometric kinase assay, peptide at 100 µM)", "setting": "[3]", "result": 50, "unit": "% activity"},
      {"measurement": "Percent Activity (radiometric kinase assay, peptide at 100 µM)", "setting": "[4]", "result": 68, "unit": "% activity"},
      {"measurement": "Percent Activity (radiometric kinase assay, peptide at 100 µM)", "setting": "[5]", "result": 100, "unit": "% activity"},
      {"measurement": "Percent Activity (radiometric kinase assay, peptide at 100 µM)", "setting": "[6]", "result": 60, "unit": "% activity"}
    ]}
  ]
}
